T1: human EpCAM on SW480 cells (human, UniProt P16422 24-314)
T1 construct: whole, on cells; also called SW480 cells expressing human EpCAM; human colon cancer cell line SW480
T1 sequence (looked up): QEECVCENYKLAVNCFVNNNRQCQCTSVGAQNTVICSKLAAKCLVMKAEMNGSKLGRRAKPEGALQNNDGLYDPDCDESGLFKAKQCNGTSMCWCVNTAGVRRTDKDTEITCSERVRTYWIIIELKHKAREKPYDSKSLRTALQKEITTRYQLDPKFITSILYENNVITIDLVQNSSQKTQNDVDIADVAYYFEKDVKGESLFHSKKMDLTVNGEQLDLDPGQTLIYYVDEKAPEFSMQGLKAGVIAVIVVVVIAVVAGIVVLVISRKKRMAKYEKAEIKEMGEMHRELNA

T2: huEpCAM.Fc (human EpCAM antigen construct) (human, UniProt P16422 24-265, limits assumed)
T2 construct: not shown: human IgG Fc
T2 sequence (looked up): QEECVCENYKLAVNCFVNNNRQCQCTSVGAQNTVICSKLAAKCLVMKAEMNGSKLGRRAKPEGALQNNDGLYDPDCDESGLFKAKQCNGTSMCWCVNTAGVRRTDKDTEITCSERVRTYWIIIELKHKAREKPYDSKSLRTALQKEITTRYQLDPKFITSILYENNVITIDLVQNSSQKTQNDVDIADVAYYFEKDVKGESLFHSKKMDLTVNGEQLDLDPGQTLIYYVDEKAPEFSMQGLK

T3: cynoCD3ε AA 1-27.Fc (cynomolgus CD3 antigen construct) (cynomolgus monkey; human, UniProt Q95LI5 22-48)
T3 construct: range 1-27; not shown: human IgG Fc
T3 chain (looked up): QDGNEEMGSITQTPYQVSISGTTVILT

B1: ITAB1002 (exemplary EpCAM×CD3 Fab fusion protein) (bispecific antibody)
heavy: EVQLVESGGGLVQPGGSLRLSCAASGFTFSNYWMSWVRQAPGKGLEWVANIKQDGSEKFYADSVKGRFTISRDNAKNSLYLQMNSLRAEDTAVYYCARVGPSWEQDYWGQGTLVTVSAGGGGSGGGGSGGGGSGAQSVLTQPPSVSGAPGQRVTISCTGSSSNIGSYYGVHWYQQLPGTAPKLLIYSDTNRPSGVPDRFSGSKSGTSASLAITGLQAEDEADYYCQSYDKGFGHRVFGGGTKLTVLGGEVQLVESGGGLVQPGGSLRLSCAASGFTFNTYAMNWVRQAPGKGLEWVARIRSKYNNYATYYADSVKDRFTISRDDSKNTLYLQMNSLRAEDTAVYYCVRHGNFGNSYVSWFAYWGQGTMVTVSSASTKGPSVFPLAPSSKSTSGGTAALGCLVKDYFPEPVTVSWNSGALTSGVHTFPAVLQSSGLYSLSSVVTVPSSSLGTQTYICNVNHKPSNTKVDKKVEPKSCPPCS
light: EVQLVESGGGLVQPGGSLRLSCAASGFTFSNYWMSWVRQAPGKGLEWVANIKQDGSEKFYADSVKGRFTISRDNAKNSLYLQMNSLRAEDTAVYYCARVGPSWEQDYWGQGTLVTVSAGGGGSGGGGSGGGGSGAQSVLTQPPSVSGAPGQRVTISCTGSSSNIGSYYGVHWYQQLPGTAPKLLIYSDTNRPSGVPDRFSGSKSGTSASLAITGLQAEDEADYYCQSYDKGFGHRVFGGGTKLTVLGGQAVVTQEPSLTVSPGGTVTLTCRSSTGAVTTSNYANWVQQKPGQAPRGLIGGTNKRAPGTPARFSGSLLGGKAALTLSGVQPEDEAEYYCALWYSNLWVFGGGTKLTVLGQPKAAPSVTLFPPSSEELQANKATLVCLISDFYPGAVTVAWKADSSPVKAGVETTTPSKQSNNKYAASSYLSLTPEQWKSHRSYSCQVTHEGSTVEKTVAPTECPPCS
notes: An anti-EpCAM scFv is fused to the N-terminus of each chain of an anti-CD3 Fab; there is no Fc; also called EpCAM x CD3 Fab fusion protein; ITB1002
B2: ITAB1012 (EpCAM×CD3 Fab fusion protein with a different EpCAM scFv) (bispecific antibody)
heavy: EVQLVESGGGLVQPGGSLRLSCAASGFTFSNYWMSWVRQAPGKGLEWVANIKQDGSEKFYVDSVKGRFTISRDNAKNSLYLQMNSLRAEDMAVYYCARVGGAWELGYWGQGTLVTVSAGGGGSGGGGSGGGGSGAQSVLTQPPSVSGAPGQRVTISCTGSSSNIGSYYGVHWYQQLPGTAPKLLIYSDTNRPSGVPDRFSGSKSGTSASLAITGLQAEDEADYYCQSYDSSLSGRVFGGGTKLTVLGGEVQLVESGGGLVQPGGSLRLSCAASGFTFNTYAMNWVRQAPGKGLEWVARIRSKYNNYATYYADSVKDRFTISRDDSKNTLYLQMNSLRAEDTAVYYCVRHGNFGNSYVSWFAYWGQGTMVTVSSASTKGPSVFPLAPSSKSTSGGTAALGCLVKDYFPEPVTVSWNSGALTSGVHTFPAVLQSSGLYSLSSVVTVPSSSLGTQTYICNVNHKPSNTKVDKKVEPKSCPPCS
light: EVQLVESGGGLVQPGGSLRLSCAASGFTFSNYWMSWVRQAPGKGLEWVANIKQDGSEKFYVDSVKGRFTISRDNAKNSLYLQMNSLRAEDMAVYYCARVGGAWELGYWGQGTLVTVSAGGGGSGGGGSGGGGSGAQSVLTQPPSVSGAPGQRVTISCTGSSSNIGSYYGVHWYQQLPGTAPKLLIYSDTNRPSGVPDRFSGSKSGTSASLAITGLQAEDEADYYCQSYDSSLSGRVFGGGTKLTVLGGQAVVTQEPSLTVSPGGTVTLTCRSSTGAVTTSNYANWVQQKPGQAPRGLIGGTNKRAPGTPARFSGSLLGGKAALTLSGVQPEDEAEYYCALWYSNLWVFGGGTKLTVLGQPKAAPSVTLFPPSSEELQANKATLVCLISDFYPGAVTVAWKADSSPVKAGVETTTPSKQSNNKYAASSYLSLTPEQWKSHRSYSCQVTHEGSTVEKTVAPTECPPCS
notes: Its EpCAM scFv has different HVRs from that of ITAB1002; It has the same anti-CD3 Fab and was transiently expressed; also called EpCAMA×CD3 Fab fusion protein

Assays:
[1] = target: T1, human EpCAM on SW480 cells; experiment: flow cytometry on SW480 cells expressing human EpCAM
Description: (§1) SW480 cells and CyEpCAM-CHO cells were trypsinized with 0.25% Trypsin-EDTA (Gibco), resuspended with a FACS buffer. […] Cells were then washed with the FACS buffer and resuspended in 50 μL FACS buffer. Mouse anti-Human IgG Fab Secondary Antibody PE conjugate(Invitrogen) were added, and allowed for incubation at 4° C. for 30 min. 150 μL FACS buffer was finally added, and the samples were analyzed using ACCURI® C6 Cytometer (BD Biosciences).

[2] = target: T2, huEpCAM.Fc (human EpCAM antigen …); experiment: BLI (Octet QKe), antigen-Fc captured on AHC biosensor
Description: (§2) The expressions of the antigen constructs is described in U.S. Pat. No. 8,846,042. The antigen constructs were diluted to 0.02 mg/mL with dilution(PBS, 0.1% BSA, 0.02% Tween-20, 0.05% NaN3), and then immobilized on an anti-hIgG Fc capture (AHC) biosensor. […] The control wells containing only PBS were also set up. The detection results were analyzed using ForteBio Data Acquisition and ForteBio Data Analysis software.

[3] = target: T4, cynomolgus monkey EpCAM on transfected CHO cells (CyEpCAM-CHO) (cynomolgus monkey); experiment: flow cytometry on CHO cells expressing cynomolgus monkey EpCAM (CyEpCAM-CHO)
T4 construct: whole, on cells; also called CHO cells expressing cynomolgus monkey EpCAM on the cell surface
T4 sequence (Q1WER1 24-314): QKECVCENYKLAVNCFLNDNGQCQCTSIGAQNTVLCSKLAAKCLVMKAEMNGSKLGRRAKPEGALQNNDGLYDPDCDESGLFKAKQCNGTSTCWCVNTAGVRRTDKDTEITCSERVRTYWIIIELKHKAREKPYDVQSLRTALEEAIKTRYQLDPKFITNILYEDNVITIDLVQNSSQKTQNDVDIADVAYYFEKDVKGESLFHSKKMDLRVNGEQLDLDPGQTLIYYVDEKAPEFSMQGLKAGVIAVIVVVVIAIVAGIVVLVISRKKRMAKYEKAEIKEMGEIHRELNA
Description: as §1

[4] = target: T2, huEpCAM.Fc (human EpCAM antigen …); experiment: BLI (Octet QKe), antigen-Fc captured on AHC biosensor, ITAB1002 in solution
Description: as §2

[5] = target: cynoEpCAM.Fc (cynomolgus EpCAM antigen construct) (cynomolgus monkey; human); experiment: as above
Description: as §2

[6] = target: T3, cynoCD3ε AA 1-27.Fc (cynomolgus CD3 …); experiment: as above
Description: as §2

human CD3 on human PBMC = target: T5, human CD3 on human PBMC (human, UniProt P07766 23-207); experiment: flow cytometry (FACS) on human PBMC, detection with PE mouse anti-human lambda light chain, co-staining with CD4 antibody; y axis Binding rate (%)
T5 construct: whole, on cells; also called hPBMC; huPBMC
T5 sequence (P07766 23-207): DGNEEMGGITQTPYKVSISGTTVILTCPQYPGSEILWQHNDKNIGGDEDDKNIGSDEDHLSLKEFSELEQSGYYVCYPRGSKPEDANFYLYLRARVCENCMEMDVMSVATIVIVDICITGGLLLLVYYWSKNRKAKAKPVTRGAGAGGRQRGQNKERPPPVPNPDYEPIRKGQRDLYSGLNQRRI
Description: Cells were washed with the FACS buffer once, resuspended in 50 μL FACS buffer, supplemented with CD4 Antibody (RFT-4g) APC-Cy7® conjugate(Invitrogen) and PE Mouse Anti-Human Light Chain […], (BD Pharmingen™), and incubated at room temperature for 45 min. 150 μL FACS buffer was finally added, and the samples were analyzed using ACCURI® C6 Cytometer (BD Biosciences).

Binder	EC50 [1]	Kd [2]	koff [2]	kon [2]	EC50 [3]	Kd [4]	Kd [5]	Kd [6]	EC50 (read off the curve) (human CD3 on human PBMC)
B1	0.411 µg/mL	2.49 nM	4.98e-05 s⁻¹	20000 M⁻¹ s⁻¹	0.108 µg/mL	3.49 nM	4.71 nM	15.6 nM	~0.1 µg/mL
B2	–	47.8 nM	0.00647 s⁻¹	135000 M⁻¹ s⁻¹	–	–	–	–	–
